Changes are numbered by the printed parent chain. Names and notes keep the numbering of the source.
B1: I260F: modified-type P3AaBGL1 with I260F only (mutation 1) (protein)
chain: MKITAVIALLFSLAAASPIPVADPGVVSVSLKKRADELAFSPPFYPSPWANGQGEWAEAYQRAVAIVSQMTLDEKVNLTTGTGWELEKCVGQTGGVPRLNIGGMCLQDSPLGIRDSDYNSAFPAGVNVAATWDKNLAYLRGQAMGQEFSDKGIDVQLGPAAGPLGRSPDGGRNWEGFSPDPALTGVLFAETIKGIQDAGVVATAKHYILNEQEHFRQVAEAAGYGFNISDTISSNVDDKTIHEMYLWPFADAVRAGVGAFMCSYNQINNSYGCQNSYTLNKLLKAELGFQGFVMSDWGAHHSGVGSALAGLDMSMPGDITFDSATSFWGTNLTIAVLNGTVPQWRVDDMAVRIMAAYYKVGRDRLYQPPNFSSWTRDEYGFKYFYPQEGPYEKVNHFVNVQRNHSEVIRKLGADSTVLLKNNNALPLTGKERKVAILGEDAGSNSYGANGCSDRGCDNGTLAMAWGSGTAEFPYLVTPEQAIQAEVLKHKGSVYAITDNWALSQVETLAKQASVSLVFVNSDAGEGYISVDGNEGDRNNLTLWKNGDNLIKAAANNCNNTIVVIHSVGPVLVDEWYDHPNVTAILWAGLPGQESGNSLADVLYGRVNPGAKSPFTWGKTREAYGDYLVRELNNGNGAPQDDFSEGVFIDYRGFDKRNETPIYEFGHGLSYTTFNYSGLHIQVLNASSNAQVATETGAAPTFGQVGNASDYVYPEGLTRISKFIYPWLNSTDLKASSGDPYYGVDTAEHVPEGATDGSPQPVLPAGGGSGGNPRLYDELIRVSVTVKNTGRVAGDAVPQLYVSLGGPNEPKVVLRKFDRLTLKPSEETVWTTTLTRRDLSNWDVAAQDWVITSYPKKVHVGSSSRQLPLHAALPKVQ
B2: Q156L: modified-type P3AaBGL1 with Q156L only (protein)
chain: B1 chain with Q156L, F260I
B3: N458S: modified-type P3AaBGL1 with N458S only (mutation 3) (protein)
chain: B1 chain with F260I, N458S
B4: R629L: modified-type P3AaBGL1 with R629L only (mutation 6) (protein)
chain: B1 chain with F260I, R629L

Columns and labels:
[1] = thermostability measurement (residual glucosidase activity after heat treatment); assay type: physicochemical; settings: for Residual glucosidase activity, Temp 50° C. / Residual glucosidase activity, Temp 55° C. / Residual glucosidase activity, Temp 60° C. / Residual glucosidase activity, Temp 65° C. / Residual glucosidase activity, Temp 70° C. / Residual glucosidase activity, Temp 73° C. / Residual glucosidase activity, Temp 75° C. / Residual glucosidase activity, Untreated: Example 9; for Residual glucosidase activity, Temp 50° C.: 10 minutes at 50° C.; for Residual glucosidase activity, Temp 55° C.: 10 minutes at 55° C.; for Residual glucosidase activity, Temp 60° C.: 10 minutes at 60° C.; for Residual glucosidase activity, Temp 65° C.: 10 minutes at 65° C.; for Residual glucosidase activity, Temp 70° C.: 10 minutes at 70° C.; for Residual glucosidase activity, Temp 73° C.: 10 minutes at 73° C.; for Residual glucosidase activity, Temp 75° C.: 10 minutes at 75° C.; for Residual glucosidase activity, Untreated: no heat treatment (reference set to 100); for thermostability (in words): compared with P3AaBGL1 / β-glucosidase without the mutation
Procedure: To 10 μl of 20 mM pNPG, 10 μl of 1M sodium acetate buffer solution (pH 5.0) and 130 μl of water were added, and then 50 μl of a diluted enzyme sample preliminarily heat-treated at […] for 10 minutes was introduced for reacting them at 37° C. for 10 minutes. As a control, a diluted enzyme sample which was not subjected to the heat treatment was used, and then the reaction was carried out at 37° C. for 10 minutes, in the same manner. 100 μl of each reaction mixture was mixed with 100 μl of 2% sodium carbonate solution to terminate reaction, and then the amount of liberated p-nitrophenol was colorimetrically measured at a wavelength of 450 nm.
The ratio (%) of the colorimetric value of each reaction mixture to the colorimetric value of the control sample (untreated sample) was defined as the residual activity after heat treatment.
(§1) By using the above-obtained culture supernatant of the P3AaBGL1 mutant strain, a diluted enzyme sample was prepared, and then the enzymatic activity of the sample was measured in accordance with the above-described activity measurement method. Further, the glucose inhibition at a final glucose concentration of from 0.1 to 200 mM and the thermostability at a warming temperature of from 50 to 75° C. were measured for evaluation.
(§2) 11F10 strain, 22A12 strain, 28C02 strain, 29F09 strain and mutBGL1 strain selected from the mutant strains, and ASP3326 strain as the original strain were cultivated in a Sakaguchi flask containing 100 ml of YPD medium at 30° C. for two days. To each of the culture supernatants obtained by cultivating them, […] was added until 80% saturation was reached, thereby to carry out ammonium sulfate precipitation at 4° C. for 2 hours. Thereafter, centrifugation was carried out to collect pellets, and the pellets were dissolved in 10 ml of 10 mM citrate phosphate buffer solution (pH 7.0). Then, desalting and concentration were carried out by using an ultrafiltration membrane having MWCO of 100,000, thereby to recover 1 ml of a crude liquid. Thus recovered crude liquid was purified by using Hitrap QXL column to collect a fraction of a peak of pNPG activity, thereby to obtain a purified sample. Elution was carried out by using a 10 mM citrate phosphate buffer solution (pH 7.0) and a NaCl concentration gradient (0 to 1M).
(§3) In the same manner as in Example 1, the residual glucosidase activities after glucose inhibition at a glucose concentration of from 0.1 to 200 mM were measured. Further, the residual glucosidase activities after heat treatment at a temperature of from 50 to 75° C. for 10 minutes were measured.

[2] = glucose inhibition measurement (residual glucosidase activity in the presence of glucose); assay type: biochemical; settings: for Residual glucosidase activity, Glc 0 mM / Residual glucosidase activity, Glc 1 mM / Residual glucosidase activity, Glc 5 mM / Residual glucosidase activity, Glc 10 mM / Residual glucosidase activity, Glc 20 mM / Residual glucosidase activity, Glc 50 mM / Residual glucosidase activity, Glc 100 mM / Residual glucosidase activity, Glc 200 mM: Example 9; for Residual glucosidase activity, Glc 0 mM: glucose 0 mM (reference set to 100); for Residual glucosidase activity, Glc 1 mM: glucose 1 mM; for Residual glucosidase activity, Glc 5 mM: glucose 5 mM; for Residual glucosidase activity, Glc 10 mM: glucose 10 mM; for Residual glucosidase activity, Glc 20 mM: glucose 20 mM; for Residual glucosidase activity, Glc 50 mM: glucose 50 mM; for Residual glucosidase activity, Glc 100 mM: glucose 100 mM; for Residual glucosidase activity, Glc 200 mM: glucose 200 mM; for resistance to glucose inhibition (in words): compared with P3AaBGL1 / β-glucosidase without the mutation
Procedure: To 10 μl of 20 mM pNPG, 10 μl of 1M sodium acetate buffer solution (pH 5.0) and from 4 to 10 μl of 1M glucose (final concentration of from 20 to 50 mM) were added, followed by addition of water up to the total volume of 150 μl. Thereafter, 50 μl of the diluted enzyme sample was introduced for reacting them at 37° C. for 10 minutes. As a control, a glucose-free reaction mixture was used, and then the reaction was carried out at 37° C. for 10 minutes, in the same manner. 100 μl of each reaction mixture was mixed with 100 μl of 2% sodium carbonate solution to terminate reaction, and then the amount of liberated p-nitrophenol was colorimetrically measured at a wavelength of 450 nm.
The ratio (%) of the colorimetric value of each reaction mixture to the colorimetric value of the control sample (glucose-free sample) was defined as the residual activity after glucose inhibition.
as §1, §2, §3

[3] = glucosidase activity measurement of culture supernatant (pNPG); assay type: biochemical
Procedure: A mutant strain which formed a large colony was selected from P3AaBGL1 mutant strain library. Then, thus selected strain and P3ASP3326 strain as the original strain were cultivated in 150 μl/well (96-well plate) of YES medium at 30° C. for two days. 50 μl of each culture supernatant was diluted by 150 μl of 50 mM acetate buffer (pH 5.0) to prepare a diluted enzyme sample. Then, the enzymatic activity of the sample was measured in accordance with the following method.
To 10 μl of 20 mM p-nitrophenyl-β-D-glucoside (hereinafter abbreviated as pNPG), 10 μl of 1M sodium acetate buffer solution (pH 5.0) and 130 μl of water were added, and then 50 μl of the diluted enzyme sample was introduced for reacting them at 37° C. for 10 minutes. 100 μl of the reaction mixture was mixed with 100 μl of 2% sodium carbonate solution to terminate reaction, and then the amount of free p-nitrophenol was colorimetrically measured at a wavelength of 450 nm.
The amount of enzyme that produces 1 μmol of p-nitrophenol per minute was defined as 1 U.
The P3AaBGL1 mutant strain obtained as above was cultivated in YES medium at 30° C. for one day. 100 μl of the culture broth was inoculated on 5 ml of YPD medium (1% of yeast extract, 2% of peptone, and 2% of glucose), followed by cultivation at 30° C. for two days. Thereafter, the culture broth was centrifuged to obtain a culture supernatant.
as §1

[4] = culture supernatant, relative to 0 mM glucose, Tables 7-10

| resistance to glucose inhibition (in words) [2] | Activity ([3]; Example 9, Table 11) [mU/ml] | Molecule | Residual glucosidase activity, Temp 50° C. [1] [%] | Residual glucosidase activity, Temp 55° C. [1] [%] | Residual glucosidase activity, Temp 60° C. [1] [%] | Residual glucosidase activity, Temp 65° C. [1] [%] | Residual glucosidase activity, Temp 70° C. [1] [%] | Residual glucosidase activity, Temp 73° C. [1] [%] | Residual glucosidase activity, Temp 75° C. [1] [%] | Residual glucosidase activity, Untreated [1] [%] | thermostability (in words) [1] | Residual glucosidase activity, Glc 0 mM [2] [%] | Residual glucosidase activity, Glc 1 mM [2] [%] | Residual glucosidase activity, Glc 5 mM [2] [%] | Residual glucosidase activity, Glc 10 mM [2] [%] | Residual glucosidase activity, Glc 20 mM [2] [%] | Residual glucosidase activity, Glc 50 mM [2] [%] | Residual glucosidase activity, Glc 100 mM [2] [%] | Residual glucosidase activity, Glc 200 mM [2] [%] | also measured |
| --- | --- | --- | --- | --- | --- | --- | --- | --- | --- | --- | --- | --- | --- | --- | --- | --- | --- | --- | --- | --- |
|  |  | 6H05 |  |  |  |  |  |  |  |  |  |  |  |  |  |  |  |  |  | Residual activity, Temp 65° C. ([1]; culture supernatant warmed 10 minutes at 65° C., relative to no heat treatment, Tables 7-10): 73%; Residual activity, Temp 67° C. ([1]; culture supernatant warmed 10 minutes at 67° C., relative to no heat treatment, Tables 7-10): 59%; Residual activity, Glc 20 mM [2, 4]: 41%; Residual activity, Glc 50 mM [2, 4]: 23%; Activity ([3]; pNPG, pH 5.0, 37° C., 10 minutes, Tables 7-10): 525 mU/ml |
| increase | 457 | B1 | 97.0 | 91.2 | 87.7 | 65.2 | 22.6 | 1.8 | 1.8 | 100 | increase | 100 | 95.9 | 73.6 | 55.6 | 39.0 | 20.2 | 11.4 | 6.3 |  |
| decrease | 507 | B2 | 93.9 | 89.7 | 83.9 | 46.0 | 6.3 | 0.9 | 1.4 | 100 | decrease | 100 | 92.8 | 64.9 | 46.8 | 31.5 | 15.5 | 8.8 | 5.4 |  |
| without decreasing | 586 | B3 | 98.6 | 95.7 | 91.6 | 64.2 | 19.4 | 0.8 | 1.6 | 100 | can be improved | 100 | 92.7 | 68.1 | 52.1 | 35.9 | 17.7 | 10.4 | 6.0 |  |
| without decreasing | 526 | B4 | 98.7 | 93.7 | 90.7 | 71.8 | 26.5 | 3.5 | 1.5 | 100 | can be improved | 100 | 91.5 | 67.4 | 53.9 | 37.6 | 19.6 | 11.1 | 6.9 |  |
